Laboratory results taken from publication PMC12421950, “Structural insights into manganese-dependent arylsulfatase from Enterococcus faecium and its catalytic promiscuity” (mBio, 2025).
Each block holds one molecule with its values, some of them ahead of it.

Experiments:
[1] = target: arylsulfatase from Enterococcus faecium (EfAS), wild type (Enterococcus faecium); assay: crystal structure; vapor diffusion at 17°C, 0.1 M sodium cacodylate pH 6.4, 8% PEG3350, 0.2 M MnCl2; space group P42(1)2, two molecules in the asymmetric unit, tetramer through symmetry-related operations
EfAS = target: T1, EfAS (Enterococcus faecium, UniProt I3U6E8); assay: p-nitrophenol colorimetric assay at […] nm, Lineweaver-Burk; assay type: biochemical; details: read-out: Kinetic parameters / Km (×10^-3 M); 50 mM sodium acetate pH 4.5, 1 mM MnCl2, 37 °C
T1 construct: gene HMPREF0351_12962; synthetic codon-optimised gene in pSMT3, E. coli BL21(DE3); His6-SUMO tag removed by Ulp1; homotetramer, 323 kDa by SEC; residues 9-488 modelled; C61 partly oxidised to formylglycine
T1 sequence (I3U6E8 1-491 limits assumed): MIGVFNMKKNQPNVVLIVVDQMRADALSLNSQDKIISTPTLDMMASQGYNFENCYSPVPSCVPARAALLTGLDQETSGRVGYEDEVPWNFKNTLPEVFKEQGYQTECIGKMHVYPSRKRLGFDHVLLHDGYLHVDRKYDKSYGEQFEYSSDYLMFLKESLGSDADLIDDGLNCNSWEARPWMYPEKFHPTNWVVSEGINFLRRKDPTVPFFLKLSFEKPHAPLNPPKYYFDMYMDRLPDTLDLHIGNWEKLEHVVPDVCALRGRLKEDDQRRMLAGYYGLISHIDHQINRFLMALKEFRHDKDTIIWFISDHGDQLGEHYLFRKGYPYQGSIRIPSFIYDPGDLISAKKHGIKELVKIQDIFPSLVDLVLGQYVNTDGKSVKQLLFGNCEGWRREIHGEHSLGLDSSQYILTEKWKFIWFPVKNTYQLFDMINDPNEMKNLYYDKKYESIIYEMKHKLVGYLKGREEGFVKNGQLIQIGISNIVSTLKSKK

purified protein [2] = substrate: O=[N+]([O-])c1ccc(OS(=O)(=O)O)cc1; assay: purified protein; assay type: biochemical, Enterococcus faecium; details: 50 mM sodium acetate pH 4.5, 1 mM MnCl2, 37 °C
purified protein [3] = substrate: O=[N+]([O-])c1ccc(OP(=O)(O)O)cc1; assay: purified protein; assay type: biochemical, Enterococcus faecium; details: 50 mM sodium acetate pH 4.5, 1 mM MnCl2, 37 °C

stoichiometry N [1]: 4
Molecule: arylsulfatase from Enterococcus faecium (EfAS), wild type (enzyme)

Molecule: O=[N+]([O-])c1ccc(OP(=O)(O)c2ccccc2)cc1 [p-nitrophenyl phenylphosphonate]
Km (EfAS): 1410 µM

B1: EfAS (Enterococcus faecium DO) (protein)
chain: MIGVFNMKKNQPNVVLIVVDQMRADALSLNSQDKIISTPTLDMMASQGYNFENCYSPVPSCVPARAALLTGLDQETSGRVGYEDEVPWNFKNTLPEVFKEQGYQTECIGKMHVYPSRKRLGFDHVLLHDGYLHVDRKYDKSYGEQFEYSSDYLMFLKESLGSDADLIDDGLNCNSWEARPWMYPEKFHPTNWVVSEGINFLRRKDPTVPFFLKLSFEKPHAPLNPPKYYFDMYMDRLPDTLDLHIGNWEKLEHVVPDVCALRGRLKEDDQRRMLAGYYGLISHIDHQINRFLMALKEFRHDKDTIIWFISDHGDQLGEHYLFRKGYPYQGSIRIPSFIYDPGDLISAKKHGIKELVKIQDIFPSLVDLVLGQYVNTDGKSVKQLLFGNCEGWRREIHGEHSLGLDSSQYILTEKWKFIWFPVKNTYQLFDMINDPNEMKNLYYDKKYESIIYEMKHKLVGYLKGREEGFVKNGQLIQIGISNIVSTLKSKK
notes: synthetic codon-optimised gene in pSMT3, E. coli BL21(DE3); His6-SUMO tag removed by Ulp1; homotetramer, 323 kDa by SEC; residues 9-488 modelled; C61 partly oxidised to formylglycine
Km (purified protein [2]): 677 µM | kcat (purified protein [2]): 0.0831 s⁻¹ | kcat/Km (purified protein [2]): 123 M⁻¹ s⁻¹ | Km (purified protein [3]): 1285 µM | kcat (purified protein [3]): 0.0318 s⁻¹ | kcat/Km (purified protein [3]): 24.8 M⁻¹ s⁻¹
